Patent publication US20190062420A1 (Janssen / Centocor, published 2019)

Columns and labels:
FcγRIIA protein = target: T1, FcγRIIA protein (human, UniProt P12318 36-217, biotinylated (SureLINK Biotin Kit) in the ELISA of Example 1); experiment: ELISA; bt-FcγRIIA on streptavidin plate, purified FN3 domain titrated
T1 construct: Soluble/recombinant antigen used in ELISA; also called bt-FcγRIIA; recombinant FcγRIIA protein
T1 sequence: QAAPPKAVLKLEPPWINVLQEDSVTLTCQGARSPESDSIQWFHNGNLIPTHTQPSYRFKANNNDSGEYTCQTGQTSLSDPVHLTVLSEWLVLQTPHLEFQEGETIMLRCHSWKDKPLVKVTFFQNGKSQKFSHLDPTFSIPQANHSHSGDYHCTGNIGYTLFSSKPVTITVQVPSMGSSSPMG
Protocol: (§1) For primary ELISA, Maxisorp 96-well plates were loaded with 100 μL per well of streptavidin (Promega; 5 μg/mL in PBS) and then held at 4° C. overnight. The next day, the streptavidin-coated plates were washed 3×TBST and then blocked with 250 μL Starting Block T20 (Pierce-cat#37543). After a 1 h incubation, all plates were washed 3 times with 1×TBST, loaded with 100 μL per well of either bt-FcγRIIA, bt-FcγRIIB, or bt-HSA (negative screen) all at 1 μg/mL, and held at room temperature for 1 h. The previously lysed FN3 domains were centrifuged at 3500 rpm for 10 minutes, diluted 1:10 in Starting Block T20 and added 100 μL each to the plates. After a 1 h incubation at room temperature, the plates were washed 3× with 1×TBST and the wells were loaded with 100 μL of a HRP conjugated rabbit polyclonal antibody against tencon 27. After a final 1 h incubation at room temperature, the plates were washed 3× with 1×TBST, loaded with 100 μL per well of the chemiluminescence substrate POD (Roche), and read in a Perkin Elmer Envision plate reader. Positive binding colonies (those clones showing 5-fold higher binding to FcγRIIA or FcγRIIB when compared to HSA) were subjected to Sanger sequencing and identified coding sequences were in silico translated to amino acid sequences. Sequence unique FN3 domains were expressed in BL21 cells and purified using nickel sepharose plates. Antigen binding of purified FN3 domains in a dilution series was performed. Specifically, in an ELISA format, Streptavidin coated plates (Promega #Z7041) were used to capture 50 μL of 1 μg/mL of either bt-FcγRIIB, bt-FcγRIIA, or as a negative control against sticky FN3 domains bt-HSA. To this FN3 domains were added at 10 μM then diluted 1:5 down to 128 pM, and detected for binding using a HRP conjugated rabbit polyclonal against tencon 27 and POD substrate (Roche #11582950001). Binding curves and EC50 values were calculated using X=log(x) transformation and non-linear regression (curved slope) calculations of Prism GraphPad.

FcγRIIB protein = target: T2, FcγRIIB protein (human, UniProt P31994 43-217, biotinylated (SureLINK Biotin Kit) in the ELISA of Example 1); experiment: ELISA; bt-FcγRIIB on streptavidin plate, purified FN3 domain titrated
T2 construct: Soluble/recombinant antigen used in ELISA; also called bt-FcγRIIB; recombinant FcγRIIB protein
T2 sequence: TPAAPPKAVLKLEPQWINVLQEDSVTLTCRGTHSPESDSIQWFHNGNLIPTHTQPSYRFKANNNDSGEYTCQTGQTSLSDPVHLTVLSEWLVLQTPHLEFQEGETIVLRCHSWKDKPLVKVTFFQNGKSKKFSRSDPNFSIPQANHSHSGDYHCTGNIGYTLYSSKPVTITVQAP
Protocol: as §1

[1] = target: T3, human FcγRIIB (NM_004001) expressed on cells (human, UniProt P31994 43-310); experiment: cell-based or functional assay
T3 sequence: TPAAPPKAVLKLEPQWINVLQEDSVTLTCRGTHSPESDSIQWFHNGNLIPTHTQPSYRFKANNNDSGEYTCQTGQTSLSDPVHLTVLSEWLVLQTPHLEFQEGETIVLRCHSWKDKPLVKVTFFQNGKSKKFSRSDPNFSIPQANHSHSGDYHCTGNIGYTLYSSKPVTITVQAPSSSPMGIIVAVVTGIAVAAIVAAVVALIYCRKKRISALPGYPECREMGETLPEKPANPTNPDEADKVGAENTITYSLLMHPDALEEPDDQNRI

[2] = target: T4, human FcγRIIA (NM_021642) expressed on cells (human, UniProt P12318 36-317); experiment: cell-based or functional assay
T4 sequence: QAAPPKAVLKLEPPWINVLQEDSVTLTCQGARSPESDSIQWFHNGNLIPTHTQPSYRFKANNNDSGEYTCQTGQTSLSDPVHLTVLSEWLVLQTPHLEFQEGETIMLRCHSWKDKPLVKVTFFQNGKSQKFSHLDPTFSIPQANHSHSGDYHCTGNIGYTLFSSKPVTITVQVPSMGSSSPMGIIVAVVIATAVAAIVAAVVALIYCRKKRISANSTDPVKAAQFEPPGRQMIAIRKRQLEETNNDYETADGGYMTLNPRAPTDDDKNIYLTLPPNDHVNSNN

[3] = target: T5, human OX40 expressed on HEK-Blue: OX40 cells (human, UniProt P43489 29-277); experiment: flow cytometry; HEK-Blue: OX40 cells
T5 construct: also called CD134
T5 sequence: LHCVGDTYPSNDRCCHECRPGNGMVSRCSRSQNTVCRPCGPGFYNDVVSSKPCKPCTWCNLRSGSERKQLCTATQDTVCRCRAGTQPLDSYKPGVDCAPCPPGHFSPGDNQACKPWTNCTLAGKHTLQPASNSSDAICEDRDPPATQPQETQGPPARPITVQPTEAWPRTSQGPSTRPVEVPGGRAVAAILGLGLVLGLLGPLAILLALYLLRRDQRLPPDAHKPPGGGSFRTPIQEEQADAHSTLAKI
Protocol: (§2) 2×10⁵ cells per well were seeded in 96-well plate and blocked in BSA Stain Buffer (BD Biosciences, San Jose, USA) for 30 min at 4° C. Cells were incubated with test mAbtyrin on ice for 1.5 h at 4° C. After being washed twice with BSA stain buffer, the cells were incubated with R-PE labeled anti-human or anti-mouse IgG secondary antibody (Jackson Immunoresearch Laboratories) for 45 min at 4° C. The cells were washed twice in stain buffer and then resuspended in 150 μL of Stain Buffer containing 1:200 diluted DRAQ7 live/dead stain (Cell Signaling Technology, Danvers, USA). PE and DRAQ7 signals of the stained cells were detected by Miltenyi MACSQuant flow cytometer (Miltenyi Biotec, Auburn, USA) using B2 and B4 channel respectively. Live cells were gated on DRAQ7 exclusion and the geometric mean fluorescence signals were determined for at least 10,000 live events collected. FlowJo software (Tree Star) was used for analysis. Data was plotted as the logarithm of antibody concentration versus mean fluorescence signals. Nonlinear regression analysis was performed by GraphPad Prism 6 (GraphPad Software, Inc.) and EC₅₀ values were calculated.
The binding of mAbtyrins on OX40 expressed on cell surface were investigated by flow cytometry assay described for testing mAbtyrin binding to FcγR. A stable HEK-Blue reporter cell line expressing human OX40 (HEK-Blue: OX40) was established by transfection OX40 expression plasmid (pUNO1-hOX40) into HEK-Blue™ Null 1 cells engineered to express a secreted embryonic alkaline phosphatase (SEAP) reporter gene under the control of NF-κB-inducible promoter (IFN-β minimal promoter). mAbtyrins were incubated with HEK-Blue: OX40 cells and the binding was detected by flow cytometry using a PE-labeled Goat F(ab′)₂ against Human IgG(γ).

[4] = target: T3, human FcγRIIB (NM_004001) expressed on …; experiment: flow cytometry; Raji cells (express predominantly FcγRIIB)
[5] = target: T4, human FcγRIIA (NM_021642) expressed on …; experiment: flow cytometry; Expi293F cells transfected with FcγRIIA
Protocol: (§3) Plasmids expressing cDNAs encoding human FcγRI (NM_000566) (SEQ ID NO: 44), FcγRIIA (NM_021642) (SEQ ID NO: 2), FcγRIIB (NM_004001) (SEQ ID NO: 3), and FcγRIIIA (NM_000569) (SEQ ID NO: 45) (Origene) were transiently transfected into Expi293F cells by ExpiFectamine293 transfection kit (Life Technologies). Flow cytometry assays were performed 48 h after transfection.
as §2

[6] = target: T3, human FcγRIIB (NM_004001) expressed on …; experiment: flow cytometry; Expi293F cells transfected with FcγRIIB
Protocol: as §3, §2

[7] = target: T3, human FcγRIIB (NM_004001) expressed on …; experiment: flow cytometry; Raji cells (express predominantly FcγRIIB); remark: listed apart in the source
Protocol: as §2
Raji cell is a cell line derived from B cells that express predominantly FcγRIIB. The binding of mAbtyrins on Raji cells were investigated by flow cytometry assay described for testing mAbtyrin binding to FcγR. Binding of the mAbtyrins were detected by flow cytometry using a PE-labeled Goat F(ab′) against Human IgG(γ).

Row | Binder | EC50 (FcγRIIA protein) | EC50 (FcγRIIB protein) | further results
1 | R2BS29 (designed binder, expressed in E. coli BL21 and purified on nickel sepharose; also called R2BS29 FN3 domain; R2B29) LPAPKNLVVSRVTEDSARLSWTAPDAAFDSFPIYYWEYRVGGEAIVLTVPGSERSYDLTGLKPGTEYFVYINGVKGGEESRPLSAIFTT | 3.22 nM | 3.57 nM | 
2 | R2BS26 (designed binder, expressed in E. coli BL21 and purified on nickel sepharose; also called R2BS26 FN3 domain) LPAPKNLVVSRVTEDSARLSWTAPDAAFDSFPIAYIEYWTGGEAIVLTVPGSERSYDLTGLKPGTEYFVWIHGVKGGAWSSPLSAIFTT | 6.51 nM | 5.3 nM | 
3 | R2BS56 (designed binder, expressed in E. coli BL21 and purified on nickel sepharose; also called R2BS56 FN3 domain; R2B56) LPAPKNLVVSRVTEDSARLSWTAPDAAFDSFSIAYWEYRKGGEAIVLTVPGSERSYDLTGLKPGTEYFVLIYGVKGGWQSKPLSAIFTT | 5.5 nM | 7.32 nM | 
4 | R2BS12 (designed binder, expressed in E. coli BL21 and purified on nickel sepharose; also called R2BS12 FN3 domain; R2B12) LPAPKNLVVSRVTEDSARLSWTAPDAAFDSFLIAYAEYWEGGEAVVLTVPGSERSYDLTGLKPGTEYFVQINGVKGGFWSIPLSAIFTT | 9.6 nM | 43 nM | 
5 | R2BS9 (designed binder, expressed in E. coli BL21 and purified on nickel sepharose; also called R2BS9 FN3 domain) LPAPKNLVVSRVTEDSARLSWTAPDAAFDSFWIYYLEYWRGGEAIVLTVPGSERSYDLTGLKPGTEYFVQIHGVKGGQYSYPLSAIFTT | 5.49 nM | 4.51 nM | 
6 | OX40SF2IgG2sigma_R2BS26_HC-C (bispecific antibody, mAbtyrin: anti-OX40 antibody OX40SF2, effector silent IgG2sigma, with linker and R2BS26 FN3 domain at the C-terminus of the heavy chain; also called mAbtyrin) heavy: QVQLVQSGAEVKKPGSSVKVSCKASGYTFKDYTMHWVRQAPGQGLEWIGGIYPNNGGSTYNQNFKDRVTLTADKSTSTAYMELSSLRSEDTAVYYCARMGYHGPHLDFDVWGQGTTVTVSSASTKGPSVFPLAPCSRSTSESTAALGCLVKDYFPEPVTVSWNSGALTSGVHTFPAVLQSSGLYSLSSVVTVPSSNFGTQTYTCNVDHKPSNTKVDKTVERKCCVECPPCPAPPAAASSVFLFPPKPKDTLMISRTPEVTCVVVDVSAEDPEVQFNWYVDGVEVHNAKTKPREEQFNSTFRVVSVLTVLHQDWLNGKEYKCKVSNKGLPSSIEKTISKTKGQPREPQVYTLPPSREEMTKNQVSLTCLVKGFYPSDIAVEWESNGQPENNYKTTPPMLDSDGSFFLYSKLTVDKSRWQQGNVFSCSVMHEALHNHYTQKSLSLSPGKGGGGGSGGGGSGGGGSGGGGSLPAPKNLVVSRVTEDSARLSWTAPDAAFDSFPIAYIEYWTGGEAIVLTVPGSERSYDLTGLKPGTEYFVWIHGVKGGAWSSPLSAIFTT light: DIQMTQSPSSLSASVGDRVTITCKASQDVGAAVAWYQQKPGKAPKLLIYWASTRHTGVPSRFSGSGSGTDFTLTISSLQPEDFATYYCQQYINYPLTFGGGTKVEIKRTVAAPSVFIFPPSDEQLKSGTASVVCLLNNFYPREAKVQWKVDNALQSGNSQESVTEQDSKDSTYSLSSTLTLSKADYEKHKVYACEVTHQGLSSPVTKSFNRGEC |  |  | % activity at 1 µg/ml with Raji cells (HEK-Blue: OX40 NF-κB reporter, relative to 1 µg/ml OX40 ligand) [1]: 103%; fold of agonism enhancement upon crosslinking (Raji cells) [1]: 25 fold; % OX40 cell killed by macrophages (ADCP, 1 µg/ml) [2]: 92%; Binding to HEK-Blue: OX40 cells (mean signal at 1 µg/ml) [3]: 10200 mean fluorescence signal; fold binding signal over OX40SF2IgG2sigma at 10 µg/mL [4]: ≥ 6 fold; EC50 [5]: 0.323 µg/mL; EC50 [6]: 1.38 µg/mL; Binding to Raji cells mean signals at 10 µg/ml [7]: 2290 mean fluorescence signal; EC50 [7]: > 10 µg/mL
7 | R2BS39 (designed binder, expressed in E. coli BL21 and purified on nickel sepharose; also called R2BS39 FN3 domain) LPAPKNLVVSRVTEDSARLSWTAPDAAFDSFLIQYQESEKVGEAIVLTVPGSERSYDLTGLKPGTEYTVSIYGVSHGPWYNYGEWRSNPLSAIFTT | 15.5 nM | 419 nM | 
8 | R2BS6 (designed binder, expressed in E. coli BL21 and purified on nickel sepharose; also called R2BS6 FN3 domain) LPAPKNLVVSRVTEDSARLSWTAPDAAFDSFLIQYQESEKVGEAIVLTVPGSERSYDLTGLKPGTEYTVSIYGVQYAAWYLPRHHEASNPLSAIFTT | 27.3 nM | 7.59 nM | 
